This is an account of results in the nanobody polyreactivity screen of Harvey et al. (2022).

The data set can be described thus: yeast display, Sf9 membrane polyspecificity reagent, FACS + sequencing; frameworks hold sequencing errors. The gist of the method:
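Synthetic nanobody libraries on Saccharomyces cerevisiae BJ5465 were galactose-induced for 36–48 hours, stained 1 hour at 4 °C with 10% biotinylated, detergent-solubilized Sf9 membrane reagent and enriched on streptavidin microbeads. FACS then separated cells into low and high (top ~1%) gates by anti-HA (expression) and streptavidin (reagent binding) fluorescence. Genes were colony-PCR amplified, MiSeq 2 × 250 sequenced and CDR-length filtered. A clone's polyreactivity label is that of its gate of origin.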
In the case of “QVQLVESGGGLVQAGGSLRLSCAASGRTFQGYSMGWYRQAPGKERELVAAISRSGGRTYYADSVKGRFTISRDNAKNTVYLQMNSLKPEDTAVYYCATDAFRDYGYWGQGTQVTVSS”, the “polyreactivity (PSR sort gate)” value is “high polyreactivity”.
Turning to “QVQLVESGGGLVQAGGSLRLSCAASGRTFQRNAMGWYRQAPGKERELVAAITSGSRTNYADSVKGRFTISRDNAKNTVFLQMNSLKPEDTAVYYCAADYTWRNNYWGQGTQVTVSS”, the “polyreactivity (PSR sort gate)” value was “high polyreactivity”.
As for “QVQLVESGGGLVQAGGSLRLSCAASGRTFQRNVMGWYRQAPGKERELVAAISSSGGGTYYADSVQGRFTISRANAKNTVYLQMNSLKPDDTAVYYCAARYRSYGGYGYYYWGLGTQVTVSS”, the entry is “high polyreactivity”; as for “QVQLVESGGGLVQAGGSLRLSCAASGRTFQRYTMGWYRPAPGKETELVAVITNGGTRTYYADYVKGRLTISRDYAKNTVYLQMNSLKPEYTAVYYCAARVRYTANYDYWGQGTQVTVSS”, “high polyreactivity”.
Consider “QVQLVESGGGLVQAGGSLRLSCAASGRTFQYNTMGWYRQAPGKERELVAAISRSGGTTYYADSVKGRFTISRDNAKNTVYLQMNSLKPEDTAVYYCAAANSYTFRYGSWGQGTEVTVSS”, for which the “polyreactivity (PSR sort gate)” value is recorded as “high polyreactivity”.
As to “QVQLVESGGGLVQAGGSLRLSCAASGRTFQYNVMGWYRQAPGKEREFVAAITWNGGSTYYADSVKGRFTISRDNAKNTVYLQMNSLKPEDPAVYYCAARWTKKQEYGYWGQGTQVTVSS”, the “polyreactivity (PSR sort gate)” value was “low polyreactivity”.
“QVQLVESGGGLVQAGGSLRLSCAASGRTFQYYAMGWYRQAPGKERELVAAISWSGARTYYADSVKGRFTISRDNAKNTVYLQMNSLKPEDTAVYYCAADRYWISLWYIMGYWGQGTQVTVSS”: the “polyreactivity (PSR sort gate)” value is recorded as “high polyreactivity”.
For the sequence “QVQLVESGGGLVQAGGSLRLSCAASGRTFQYYAMGWYRQAPGKERELVAAITRGDSTYYADSVKGRFTISRDNAKNTVYLQMNSLKPEDTAVYYCNAKLYKPPFDYWGQGTQVTVSS”, the “polyreactivity (PSR sort gate)” value is on record as “low polyreactivity”.
Regarding “QVQLVESGGGLVQAGGSLRLSCAASGRTFQYYAMGWYRQAPGKERELVAAITSGGSTYYADSVKGRFTISRDNAKNTVYLQMNSLKPEDTAVYYCAASFYYSGHDDYWGQGTQVTVSS”, the “polyreactivity (PSR sort gate)” value is “low polyreactivity”.
“QVQLVESGGGLVQAGGSLRLSCAASGRTFQYYAMGWYRQAPGKERVLVAAITSSGGSTYYADSVKGRFTISRHNAKNTVYLQMNSLKPEDTAVYYCAAEDGLQGNYNYGYDYWGQGTQVTVSS”: the “polyreactivity (PSR sort gate)” value is “low polyreactivity”.
For “QVQLVESGGGLVQAGGSLRLSCAASGRTFQYYTMGWYRQAPGKERELVAAISSSGVSTYYADSVKGRFTISRDNAKNTVYLQMNSLKPEDTAVYYCNAVSRARYHAAYDSWGQGTQVTVSS”, the “polyreactivity (PSR sort gate)” value was “high polyreactivity”.
With “QVQLVESGGGLVQAGGSLRLSCAASGRTFRANAMGWYRQAPGKERDLVAAITWDGGSTYYADSVKGRFTISRDNAKNTVYLQMNSLKPEDTAVYYCNTDPYLWGQGTQVTVSS” the entry was “low polyreactivity”; with “QVQLVESGGGLVQAGGSLRLSCAASGRTFRAYAMGWYRQAPGKERELVAGITSGGSTNYADSVKGRFTISRDNAKNTVYLQMNSLKPEDTAVYYCAAKTHSRTKVYTADYWGQGTQVTVSS”, “high polyreactivity”; with “QVQLVESGGGLVQAGGSLRLSCAASGRTFRAYSMGWYRQAPGKERELVAASSRSGGRTYYADSVKGRFTISRDNAKITVFFQINSLKPEDTAVYYCAAETKYNTHDYYYWGQATQVTVSS”, “high polyreactivity”.
With “QVQLVESGGGLVQAGGSLRLSCAASGRTFRCYAMGWYRQAPGKETELVAAITFSGGSTYYADSVKGRFTISRDNAKNTVYLQMNSLKPEDTAVYYCNAVYYRRKEYDYWGQGTQVTVSS”, the “polyreactivity (PSR sort gate)” value is reported as “high polyreactivity”.
In the case of “QVQLVESGGGLVQAGGSLRLSCAASGRTFRFYAMGWYRQAPGKERELVAAITGSGGSTYYADSVKGRFTISRDNAKNTVYLQMNSLKPEDTAVYYCAAQRQQRYYNPEHYNYWGQGTQVTVSS”, the “polyreactivity (PSR sort gate)” value is listed as “low polyreactivity”.
As for “QVQLVESGGGLVQAGGSLRLSCAASGRTFRFYAMGWYRQAPGKERELVAGITGGGSTNYADSVKGRFTISRDNAKNTVYLQMNSLKPEDTAVYSCNATIRYYRRGKLYDYWGQGTQVTVSS”, the “polyreactivity (PSR sort gate)” value is listed as “high polyreactivity”.
As for “QVQLVESGGGLVQAGGSLRLSCAASGRTFRFYARGWYRQAPGKERELVAAIRNGGRTNYADSVKGRFTISRDNAKISVFLQMNSLKPEDTAVYYCAIQPGISYRHYDYWGQGTQVTVSS”, the entry is “high polyreactivity”; as for “QVQLVESGGGLVQAGGSLRLSCAASGRTFRGNAMGWYRQAPAKDRELVGAGGSTYYADSVKGRFTISRDNAKNTVYLQMNSLKPEASAVYYCGAALGFSRYSWFGYGYWGQGTQVTVSS”, “low polyreactivity”; as for “QVQLVESGGGLVQAGGSLRLSCAASGRTFRGNAMGWYRQAPGKERELVAVITSGDSTYYADSVKGRFTISRDNAKNTVYLQMNSLKPEDTAVYYCATKSRFSRGKAYYYWGQGTQVTVSS”, “high polyreactivity”.
With “QVQLVESGGGLVQAGGSLRLSCAASGRTFRGNAMGWYRQAPGKEREVVAAISWSGGNTYYADSVKGRFTISRDNAKNTVYLQMNSLKPEDTAVYYCAAGSYWSPYGQSFWPKYDYWGQGTQVTVSS”, the “polyreactivity (PSR sort gate)” value is reported as “high polyreactivity”.
As to “QVQLVESGGGLVQAGGSLRLSCAASGRTFRGNVMGWYRQAPGNEREFVAASTRSGSNTYYADSVKGRFTISRDYAKTTVYLQMNSLKPEDTAVYDCAKSVLLGYKRHDSWGQGTQVTVSS”, the “polyreactivity (PSR sort gate)” value is on record as “high polyreactivity”.
With “QVQLVESGGGLVQAGGSLRLSCAASGRTFRGYAMGWYRQAPGKERELVAAISWSGGSTYYADSVKGRFTISRDNAKNTVYLQMNSLKPEDTAVYYCNAVYRGVAYDYWGQGTQVTVSS”, the “polyreactivity (PSR sort gate)” value is listed as “high polyreactivity”.
As for “QVQLVESGGGLVQAGGSLRLSCAASGRTFRGYAMGWYRQAPGKERELVAGISRSGGSTYYADSVKGRFTISRDNAKNTVYLQMNSLKPEDTAVYYCNAVPIYYAWRRNKPFDYWGQGTQVTVSS”, the entry is “low polyreactivity”; as for “QVQLVESGGGLVQAGGSLRLSCAASGRTFRGYTMGWYRQAPGKERELVAAINWSGGRTYYADSVKGRFTISRDYAKNTVYLQMNSLKPEDTAVYDCNAVTQITGSSDGDYWGQGTQVNVSS”, “high polyreactivity”.
On to “QVQLVESGGGLVQAGGSLRLSCAASGRTFRHNAMGWYRQAPGKERELVAAISSSGTNTHYADSVKGRFTISRDNAKNTVYLQMNSLKPEDTAVYYCAADRWGARRKQYHENGYWGQGTQVTVSS”, for which the “polyreactivity (PSR sort gate)” value is given as “high polyreactivity”.
As for “QVQLVESGGGLVQAGGSLRLSCAASGRTFRHNAMGWYRQAPGKERELVAANSSGGSTYYADSVKGRFTISRDNAKNTVYLQLYSLKREDTAVYYCAASRYRPYGGTTTDYWGQGTQLTVSS”, the “polyreactivity (PSR sort gate)” value is “high polyreactivity”.
For the sequence “QVQLVESGGGLVQAGGSLRLSCAASGRTFRHNTMGWYRQAPGKEREFVAVITSSGGSTYYADSVKGRFTISRDNAKNTVYLQMNSLKPEDTAVYYCNAKYHLSRSTYYYWGQGTQVTVSS”, the “polyreactivity (PSR sort gate)” value is “high polyreactivity”.
Regarding “QVQLVESGGGLVQAGGSLRLSCAASGRTFRINAMGWYRHAPGKERELVAAITRGDTNYADSVKGRFTISRDNAKNTVYLQMNSLKPEDTAVYYCNAELSFRYPVFRELDYWGQGTQVTVSS”, the “polyreactivity (PSR sort gate)” value is “low polyreactivity”.
On to “QVQLVESGGGLVQAGGSLRLSCAASGRTFRINAMGWYRQAPGKEREFVASIRYSGGSTYYADSVKGRFTISRDNAKNTVYLQMNSLKPEDTAVYYCAAVRSYYRGYDYWGQGTQVTVSS”, for which the “polyreactivity (PSR sort gate)” value is “high polyreactivity”.
